Experimental data reported in patent publication US20190284299A1.

Assays:
[1] = biological target: HER2 on SK-BR-3 cells (UniProt P04626); experiment: flow cytometry on SK-BR-3 cells, 0.5 nM, anti-human IgG-FITC
[2] = biological target: CD3 on Jurkat cells (Homo sapiens (Human)) (UniProt P07766); experiment: flow cytometry on Jurkat cells, as in Example 8
[3] = biological target: CD20 on Raji cells (UniProt P11836); experiment: flow cytometry on Raji cells, as in Example 8
[4] = biological target: CD3 on Jurkat cells (Homo sapiens (Human)) (UniProt P07766); experiment: flow cytometry on Jurkat cells, 5 nM, anti-human IgG-FITC
[5] = biological target: CD3 on Jurkat cells (Homo sapiens (Human)) (UniProt P07766); experiment: flow cytometry on Jurkat cells, as in Example 8; remark: listed apart in the source
[6] = biological target: CD3 on Jurkat cells (Homo sapiens (Human)) (UniProt P07766); experiment: flow cytometry on Jurkat cells, as in Example 8; remark: listed apart in the source

Sequence of CD3 on Jurkat cells (Homo sapiens (Human)) (P07766 23-207 limits assumed, form in doubt, chain 1 of 3): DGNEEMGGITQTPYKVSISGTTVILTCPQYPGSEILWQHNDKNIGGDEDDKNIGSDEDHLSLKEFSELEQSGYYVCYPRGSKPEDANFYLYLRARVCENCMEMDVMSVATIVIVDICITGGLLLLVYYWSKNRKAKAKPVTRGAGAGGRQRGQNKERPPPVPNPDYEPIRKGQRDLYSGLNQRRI
Sequence of CD3 on Jurkat cells (Homo sapiens (Human)) (delta, as listed by the source limits assumed, form in doubt, chain 2 of 3): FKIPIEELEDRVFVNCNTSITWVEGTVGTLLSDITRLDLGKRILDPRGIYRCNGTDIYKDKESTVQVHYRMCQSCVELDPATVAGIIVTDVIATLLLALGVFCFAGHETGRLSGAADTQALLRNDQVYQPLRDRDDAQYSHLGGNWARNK
Sequence of CD3 on Jurkat cells (Homo sapiens (Human)) (gamma, as listed by the source limits assumed, form in doubt, chain 3 of 3): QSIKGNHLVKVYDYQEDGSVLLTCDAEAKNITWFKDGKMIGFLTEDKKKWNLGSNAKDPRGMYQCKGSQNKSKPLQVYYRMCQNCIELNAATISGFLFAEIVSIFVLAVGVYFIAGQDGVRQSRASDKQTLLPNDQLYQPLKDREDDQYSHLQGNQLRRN
Sequence of CD20 on Raji cells (P11836 whole entry): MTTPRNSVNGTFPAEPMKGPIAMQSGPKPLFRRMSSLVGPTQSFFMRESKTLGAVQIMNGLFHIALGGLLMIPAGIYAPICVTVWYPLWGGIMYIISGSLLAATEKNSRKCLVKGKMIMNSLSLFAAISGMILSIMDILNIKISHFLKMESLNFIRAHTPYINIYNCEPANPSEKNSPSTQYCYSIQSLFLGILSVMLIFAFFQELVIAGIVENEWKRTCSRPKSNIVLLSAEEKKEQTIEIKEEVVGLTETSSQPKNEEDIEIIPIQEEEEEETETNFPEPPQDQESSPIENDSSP

Work on “isotype control (human immunoglobulin, Jiangxi Boya Bio-pharmaceutical, Approval No.S19993012) (antibody)” yielded a Mean Fluorescence Intensity (MFI) [1] of 2.88, an MFI [2] of 2.7 and an MFI [3] of 2.77. The MFI [4] was 3.16, the MFI [5] was 2.75 and the MFI [6] was 3.34.
